Experimental data reported in PMC7203116, “Cryo-electron microscopy reveals two distinct type IV pili assembled by the same bacterium” (Nature Communications, 2020).

B1: PilA4, major pilin of Thermus thermophilus HB27 (subunit of the wide type IV pilus) (natural protein, UniProt Q72JC0 7-131, looked up)
chain: FTLIELLIVIAIIAILAAVLIPNLLAARKRANDTVVTAYLNDAVKFQEMYQIDNNSYTSNQAALISLGLKSTPANVTFSIVSASANSYCMIAGHSGGTVWFAATPDKGVYKTNTAVTSSQPESCP
modifications: extra densities attributed to O-linked glycans at Ser59, Ser66 and Ser71; disulphide bond Cys89-Cys124
notes: PilA4, major type IV pilin of Thermus thermophilus HB27; mature pilin of 125 amino acids (Phe1 to Pro125) after cleavage of the class III signal peptide; all residues of the mature protein are in the model PDB 6XXD. numbers count on: the mature protein; Assembled as a helical filament (wide pilus; rise 9.33 Å, twist 92.5°); the deposited model holds 16 identical subunits; also called wide pilus …
B2: PilA5 (TT_C1836), pilin of Thermus thermophilus HB27 (subunit of the narrow type IV pilus) (natural protein, UniProt Q72GL2 6-116, looked up)
chain: FTLIELAIVIVIIGILVAIAVPRFVDLTDQANQANVDATAAAVRSAYAIATVQAKGIPTCDQVFANPEGGSTSGSTWTSSDNSTTVSCNASADTFTISRGGKTRTLNLTVN
modifications: extra density attributed to an O-linked glycan at Ser73; disulphide bond Cys60-Cys88
notes: 111 amino acids; all residues of the mature protein are in the model PDB 6XXE. numbers count on: the mature protein; Assembled as a helical filament (narrow pilus; rise 11.26 Å, twist 84.3°); the deposited model holds 16 identical subunits; also called Tt17; narrow pilus subunit; source: endogenous, pili isolated from T. thermophilus HB27 cells (ethanolamine buffer pH 10.5, ammonium sulfate …)

Target: the molecule itself
Assay: cryo-EM structure; single-particle cryoEM and helical reconstruction (SPRING) of pili isolated from T. thermophilus HB27; wide and narrow filaments boxed separately from the same micrographs; atomic models built de novo

| Protein | binding result |
| --- | --- |
| B1 | binds |
| B2 | binds |
